Measurements reported in US20220125891A1 (OSAKA UNIVERSITY, published 2022).
Numbering of substitutions follows the chain as printed. Values belong to the binder of their own block, whether it stands above or below them.

How the values were obtained:
[1] = target: T1, full-length human Regnase-1 with a FLAG tag on the N-terminal side and a biotin ligase BirA recognition … (human, UniProt Q5D1E8 1-599, biotinylated where required ; Biotinylated at the BirA recognition sequence where required. That sequence is not in the letters.); assay: flow cytometry of antigen-coated streptavidin beads
T1 construct: Expressed in Expi293 cells, purified on FLAG M2 agarose and by gel filtration; also called full-length Regnase-1; human full-length Regnase-1
T1 sequence: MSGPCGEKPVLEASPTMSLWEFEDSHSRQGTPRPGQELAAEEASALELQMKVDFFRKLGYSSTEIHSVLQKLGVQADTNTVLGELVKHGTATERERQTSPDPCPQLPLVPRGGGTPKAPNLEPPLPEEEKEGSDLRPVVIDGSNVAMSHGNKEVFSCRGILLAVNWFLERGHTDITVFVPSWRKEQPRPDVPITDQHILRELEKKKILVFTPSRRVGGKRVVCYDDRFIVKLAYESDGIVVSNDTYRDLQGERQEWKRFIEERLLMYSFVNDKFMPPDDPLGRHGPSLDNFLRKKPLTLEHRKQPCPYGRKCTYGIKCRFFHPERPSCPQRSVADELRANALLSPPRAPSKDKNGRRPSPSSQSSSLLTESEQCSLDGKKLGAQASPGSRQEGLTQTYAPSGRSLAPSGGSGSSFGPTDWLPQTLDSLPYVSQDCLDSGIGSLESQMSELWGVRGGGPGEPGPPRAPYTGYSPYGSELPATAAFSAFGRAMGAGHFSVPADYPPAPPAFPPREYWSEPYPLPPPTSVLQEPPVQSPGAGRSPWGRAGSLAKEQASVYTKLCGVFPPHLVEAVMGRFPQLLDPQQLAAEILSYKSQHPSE

[2] = target: T2, Peptide 1 (CLDSGIGSLESQMSELWGVRGG), biotin-conjugated (human, biotin-conjugated); assay: as above
T2 construct: also called human Regnase-1 peptide
T2 peptide: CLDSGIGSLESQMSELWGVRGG

binding result [1]: binds
binding result [2]: binds
B1: REA0023 (antibody, V domains shown)
VH: QSLEESGGDLVKPGASLTLTCTDAGFSFSGVYWMHWVRQAPGKGLEWIACINAGSSGSTYYASWAKGRFTISKPSSTTVTLQMTSLTVADTATYFCARSFTLWGPGTLVTVSS
VL: AVVTQTPSSVSAAVGGTVTIKCQSSQSVGNNNYLAWFQQKPGQPPKLLIYSASTLASGVPSRFSGSGSGTQFTLTISGVQCDDAATYYCLGGYDGDGEAFYVFGGGTEVVVKG
notes: Rabbit antibody gene expressed in HEK293 cells, purified by Protein A; also called anti-Regnase-1 antibody; anti-non-phosphorylated Regnase-1 peptide antibody

binding result [1]: binds
binding result [2]: binds
B2: REA0027 (antibody, V domains shown)
VH: B1 VH with D23A, A24S, S27G, G30S, V31S, G57T, S58K, R98W, T101N
VL: B1 VL with Y33W
notes: as for B1
